Test results taken from PMC6699925.

Target: phospholamban (PLN), mouse (mouse (endogenous in mouse heart)) (UniProt P61014)
Assay: co-IP

UniProt P61014, sequence (P61014 whole entry): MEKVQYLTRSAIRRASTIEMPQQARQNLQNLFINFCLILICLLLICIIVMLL

reduction of PP1c bound to PLN in Ppp1r3a-KO against WT hearts: 58%
Substance: protein phosphatase 1 catalytic subunit (PP1c), mouse (from UniProt P62137 1-330) (enzyme)
